# Experiments:
# Experiment in all cases: IEDB peptide-MHC binding, cellular MHC/competitive/fluorescence; ≥ and ≤ were set here for values at or beyond the usual limits of such assays
# HLA-A*02:01 = target: HLA-A*02:01
# HLA-A*02:02 = target: HLA-A*02:02
# HLA-A*02:03 = target: HLA-A*02:03
# HLA-A*02:06 = target: HLA-A*02:06
# HLA-A*68:02 = target: HLA-A*68:02
# [1] = source organism: Vaccinia virus WR
# [2] = source organism: Influenza A virus
# [3] = source organism: Mammarenavirus guanaritoense
# [4] = source organism: Hepacivirus hominis
Sequence,IC50 (HLA-A*02:01; [1]) [µM],IC50 (HLA-A*02:02; [1]) [µM],IC50 (HLA-A*02:03; [1]) [µM],IC50 (HLA-A*02:06; [1]) [µM],IC50 (HLA-A*68:02; [1]) [µM],other results
LTNKKYRCMA,≥ 70,34.8,5.4,≥ 70,16.6,
ATALANTI,,,,,,IC50 (HLA-A*02:01; [2]): 21.9 µM; IC50 (HLA-A*02:02; [2]): 42.9 µM; IC50 (HLA-A*02:03; [2]): 22.4 µM; IC50 (HLA-A*02:06; [2]): ≥ 70 µM; IC50 (HLA-A*68:02; [2]): 40.8 µM
PLIRHENRMVL,,,,,,IC50 (HLA-A*02:01; [2]): 28.8 µM; IC50 (HLA-A*02:02; [2]): ≥ 70 µM; IC50 (HLA-A*02:03; [2]): 16.9 µM; IC50 (HLA-A*02:06; [2]): ≥ 70 µM; IC50 (HLA-A*68:02; [2]): ≥ 70 µM
RTWKVLSIMA,8.48,24,6.05,5.75,8.2,
DIVSDSKKIM,64.6,25.1,57.2,≥ 70,≥ 70,
EIDVSEVKT,≥ 70,46,≥ 70,≥ 70,20,
LLLVVQALR,,,,,,IC50 (HLA-A*02:01; [2]): 10.2 µM; IC50 (HLA-A*02:02; [2]): 10.7 µM; IC50 (HLA-A*02:03; [2]): 34.6 µM; IC50 (HLA-A*02:06; [2]): 8.59 µM; IC50 (HLA-A*68:02; [2]): 60.4 µM
YVIGLLPQS,,,,,,IC50 (HLA-A*02:01; [3]): ≥ 70 µM; IC50 (HLA-A*02:02; [3]): ≥ 70 µM; IC50 (HLA-A*02:03; [3]): ≥ 70 µM; IC50 (HLA-A*02:06; [3]): 48.1 µM; IC50 (HLA-A*68:02; [3]): ≥ 70 µM
VASDVCKKNL,≥ 70,50.9,≥ 70,≥ 70,39.5,
PLIISTDQDT,52.5,45,35.6,47.4,≥ 70,
SITPNNLNKI,≥ 70,14.9,≥ 70,≥ 70,≥ 70,
LTPFEKEFT,44.5,16.8,20.9,≥ 70,≥ 70,
PLPSLEYGA,14.7,11.4,18.9,42.5,30.9,
PAEMLASI,,,,,,IC50 (HLA-A*02:01; [2]): ≥ 70 µM; IC50 (HLA-A*02:02; [2]): ≥ 70 µM; IC50 (HLA-A*02:03; [2]): ≥ 70 µM; IC50 (HLA-A*02:06; [2]): ≥ 70 µM; IC50 (HLA-A*68:02; [2]): ≥ 70 µM
PMIIGEPIIV,26.3,≥ 70,8.84,≥ 70,≥ 70,
YVPSAEDNYL,≥ 70,≥ 70,≥ 70,≥ 70,≥ 70,
RINLLVQYGA,9.16,10.3,15.3,7.65,21,
PTEMVDVSMM,41.9,11.5,≥ 70,12.1,≥ 70,

Sequence,IC50 (HLA-A*02:01; [1]) [µM],IC50 (HLA-A*02:02; [1]) [µM],IC50 (HLA-A*02:03; [1]) [µM],IC50 (HLA-A*02:06; [1]) [µM],IC50 (HLA-A*68:02; [1]) [µM],other results
AIKQYGDIDL,45.8,23.4,46.4,≥ 70,38.7,
PLSPDTCLLA,6.97,11.2,9.31,19.9,15.2,
IAEYIAGLKI,7.83,28.6,23,10.2,5.85,
PAMSTYSDI,16.1,18.3,20.6,≥ 70,69.8,
SIENKHQRRL,≥ 70,17,21.1,53.6,≥ 70,
ILLRAFTEEGA,,,,,,IC50 (HLA-A*02:01; [2]): 11.9 µM; IC50 (HLA-A*02:02; [2]): 9.59 µM; IC50 (HLA-A*02:03; [2]): 26.5 µM; IC50 (HLA-A*02:06; [2]): 26.3 µM; IC50 (HLA-A*68:02; [2]): ≥ 70 µM
PACVYGLA,,,,,,IC50 (HLA-A*02:01; [2]): 68.7 µM; IC50 (HLA-A*02:02; [2]): ≥ 70 µM; IC50 (HLA-A*02:03; [2]): ≥ 70 µM; IC50 (HLA-A*02:06; [2]): ≥ 70 µM; IC50 (HLA-A*68:02; [2]): 52.3 µM
VTKSSSWKDV,≥ 70,≥ 70,41.9,≥ 70,40.4,
TVIKNNMI,,,,,,IC50 (HLA-A*02:01; [2]): ≥ 70 µM; IC50 (HLA-A*02:02; [2]): 36 µM; IC50 (HLA-A*02:03; [2]): ≥ 70 µM; IC50 (HLA-A*02:06; [2]): 67 µM; IC50 (HLA-A*68:02; [2]): ≥ 70 µM
LIQYRQQLEL,≥ 70,32.8,19.5,52.9,≥ 70,
YLEKANKI,,,,,,IC50 (HLA-A*02:01; [2]): 12.3 µM; IC50 (HLA-A*02:02; [2]): 8.22 µM; IC50 (HLA-A*02:03; [2]): 38.3 µM; IC50 (HLA-A*02:06; [2]): ≥ 70 µM; IC50 (HLA-A*68:02; [2]): ≥ 70 µM
LLGLLLLCV,,,,,,IC50 (HLA-A*02:01; [4]): 7.37 µM; IC50 (HLA-A*02:02; [4]): 9.77 µM; IC50 (HLA-A*02:03; [4]): 6.77 µM; IC50 (HLA-A*02:06; [4]): 19.1 µM; IC50 (HLA-A*68:02; [4]): ≥ 70 µM
ELEKCTSEI,24.8,21.1,56,57.8,24.6,
SAAFEDLRLL,,,,,,IC50 (HLA-A*02:01; [2]): 42.7 µM; IC50 (HLA-A*02:02; [2]): 21.4 µM; IC50 (HLA-A*02:03; [2]): 13.6 µM; IC50 (HLA-A*02:06; [2]): 23.5 µM; IC50 (HLA-A*68:02; [2]): ≥ 70 µM
LTDVEKRIL,27,27.4,28.5,≥ 70,≥ 70,
DLDKVYEIL,29.7,19.6,26.3,53.6,≥ 70,
FASADNHPKM,≥ 70,≥ 70,47.4,≥ 70,≥ 70,

# — the Immune Epitope Database (IEDB)
